Results taken from patent US20030162190, “Phosphoromonothioate and phosphorodithioate oligonucleotide aptamer chip for functional proteomics” (published 2003).

Target: NF-kB p65 (RelA) homodimer (UniProt Q04206 Q04206:1-551)
Assay: EMSA; competitive EMSA; 5 to 15-fold tighter to p65/p65 than p50 homodimer
Conditions: chain copies: 2 (stated homodimer)
Experimental: The example used to illustrate that when only one or two dithioate linkages were placed in a molecule, the inhibition/binding of the oligonucleotide to recombinant protein was similar to that of the unsubstituted aptamer illustrates is shown in FIG. 3—as the substitutions of dithiophosphate were increased, binding by the [S₂]-ODN oligonucleotide increased dramatically. For example, in a standard competitive binding assay, ³²P-IgκB promoter element ODN is incubated with recombinant p65 and varying amounts of XBY aptamer competitor. The relative binding ability of the unlabeled ODNs is determined by the concentration needed to effectively compete with the standard labeled ODN. XBY1 through 6 correspond to CK-14 aptamers with 1 through 6 dithiophsphate substitutions, respectively. The present inventors, according to an embodiment of this invention, developed an oligonucleotide containing six dithioate linkages on the two strands, termed XBY-6.
Competitive binding of XBY-6 to p65 homodimers is performed using EMSAs. XBY-6 concentrations are 1.95 (triangle), 3.89 (open circle), and 7.77 (closed circle).

Chain of NF-kB p65 (RelA) homodimer (Q04206 whole entry, one chain of several): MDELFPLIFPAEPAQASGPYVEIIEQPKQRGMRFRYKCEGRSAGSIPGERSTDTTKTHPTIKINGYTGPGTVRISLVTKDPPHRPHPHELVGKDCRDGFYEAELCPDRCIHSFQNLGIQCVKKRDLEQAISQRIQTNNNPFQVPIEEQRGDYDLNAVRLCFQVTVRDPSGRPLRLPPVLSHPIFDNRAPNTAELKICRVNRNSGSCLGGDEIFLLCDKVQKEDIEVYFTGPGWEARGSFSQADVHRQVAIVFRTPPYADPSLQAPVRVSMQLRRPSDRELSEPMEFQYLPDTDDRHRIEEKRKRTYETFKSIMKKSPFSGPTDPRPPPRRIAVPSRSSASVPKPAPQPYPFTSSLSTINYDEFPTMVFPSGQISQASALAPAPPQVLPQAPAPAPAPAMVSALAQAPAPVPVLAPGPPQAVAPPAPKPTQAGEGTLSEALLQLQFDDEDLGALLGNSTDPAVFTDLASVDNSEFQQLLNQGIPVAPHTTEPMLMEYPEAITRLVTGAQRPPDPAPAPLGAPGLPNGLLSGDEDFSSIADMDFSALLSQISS

B1: XBY-6 (dsDNA)
DNA 1: CCAGGAGATTCCAC
DNA 2: GTGGAATCTCCTGG
modifications: six phosphorodithioate linkages on the two strands, positions shown only in figures
With B1 as the binder, how does the Kd read?
Its Kd is 1.44 nM.
